# The RNAGym collection of RNA variant scans (doi:10.1073/pnas.2313332121)
# B1: TPR t1 (parent)
# chain: GACCAAUCUGCCCUCAGAGCUCGAGAACAUCUUCGGAUGCAGAGGAGGCAGGCUUCGGUGGCGCGAUAGCGCCAACGUCCUCAACCUCCAAUGCAUCCCACCACAUGAUGAUGCCUGAAGAGCCUUGGUUUUUUG
# Variants of: B1
# Experiment: polymerase ribozyme fitness, log enrichment relative to wild type (log ratio); higher = more active; in vitro selection for triplet polymerase activity
# Summary of the method: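 To select mutant libraries of each subunit of a heterodimeric triplet polymerase ribozyme, built by PCR and transcribed, each was annealed with a biotinylated primer, partner subunit and triplets, then incubated frozen at −7 °C. Extended constructs were gel-excised, captured on streptavidin beads and amplified by RT-PCR, in one round carried out in triplicate. Illumina sequencing of input and output libraries kept genotypes with ≥10 input reads and ≥1 read per output. Fitness is the base-2 logarithm of genotype enrichment relative to wild-type enrichment, from inverse-variance-weighted replicate averages.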
row,Variant,polymerase ribozyme fitness (log ratio)
1,GACCAAUCUGCCCUCAGAGCUCGAGAACAUCUUCGGAUGCAGAGGAGGCAGGCUUCGGUGGCGCGAUAGCGCCAACGUCCUCAAACUCCAAUGCAUCCCACCACAUGAUGAUACCUGAAGCGCCUUGGUUUUUUG [C85A G113A A121C],-2.05
2,GACCAAUCUGCCCUCAGAGCUCGAGAACAUCUUCGGAUGCAGAGGAGGCAGGCUUCGGUGGCGCGAUAGCGCCAACGUCCUCAAGCUCCAAUGCAUCCCACCACAUGAUGCUGCCUGAAGAGCCUUGGUUUUUUG [C85G A111C],-3.12
3,GACCAAUCUGCCCUCAGAGCUCGAGAACAUCUUCGGAUGCAGAGGAGGCAGGCUUCGGUGGCGCGAUAGCGCCAACGUCCUCAAACUCCAAUGCAUCCCACCACAUGAUGAUGCCUGAAGCGCCUUGGUUUUUUG [C85A A121C],0.793
4,GACCAAUCUGCCCUCAGAGCUCGAGAACAUCUUCGGAUGCAGAGGAGGCAGGCUUCGGUGGCGCGAUAGCGCCAACGUCCUCAUCCUUCAAUACAUCCCACCACAUGAUGAUGCCUGAAGAGCCUUGAUUUUUUG [A84U C88U G93A G128A],-2
5,GACCAAUCUGCCCUCAGAGCUCGAGAACAUCUUCGGAUGCAGAGGAGGCAGGCUUCGGUGGCGCGAUAGCGCCAACGUCCUCAUCCUCCAAUACAUCCCACCACAUGAUGAUGCGUGAAGAGCCUUGGUUUUUUG [A84U G93A C115G],-2.08
6,GACCAAUCUGCCCUCAGAGCUCGAGAACAUCUUCGGAUGCAGAGGAGGCAGGCUUCGGUGGCGCGAUAGCGCCAACGUCCUCAAUCUCCAAUGCAUCCCACCACAUGAUGAUCACUGAAGAGCCUUGGUUUUUUG [C85U G113C C114A],-5.96
7,GACCAAUCUGCCCUCAGAGCUCGAGAACAUCUUCGGAUGCAGAGGAGGCAGGCUUCGGUGGCGCGAUAGCGCCAACGUCCUCAUCCUCCAAUUCAUCCCACCACAUGAUGAUGCCUGAAGAGCCUUGGUUUUUUG [A84U G93U],-1.44
8,GACCAAUCUGCCCUCAGAGCUCGAGAACAUCUUCGGAUGCAGAGGAGGCAGGCUUCGGUGGCGCGAUAGCGCCAACGUCCUCAUCCUCCAAUACAUCCCACCACAUGAUGAUGCCUGAAGAGCCUUGGUUUUUUG [A84U G93A],-1.11
9,GACCAAUCUGCCCUCAGAGCUCGAGAACAUCUUCGGAUGCAGAGGAGGCAGGCUUCGGUGGCGCGAUAGCGCCAACGUCCUCAUCCUCCAAUGCAUCCCACCACAUGAUGAUGCCUGAAGAGACUUGGUUUUUUG [A84U C123A],-0.143
10,GACCAAUCUGCCCUCAGAGCUCGAGAACAUCUUCGGAUGCAGAGGAGGCAGGCUUCGGUGGCGCGAUAGCGCCAACGUCCUCAAUCUCCAAUGCAUCCCACCACAUGUUGAUGCCUGAAGAGGCUUGGUUUUUUG [C85U A108U C123G],-6.32
11,GACCAAUCUGCCCUCAGAGCUCGAGAACAUCUUCGGAUGCAGAGGAGGCAGGCUUCGGUGGCGCGAUAGCGCCAACGUCCUCAUCCUCCAAUGCAUCCCACCACAUGAUGAUGCGUGAAGAGCCUUGGUUUUUUG [A84U C115G],-3.83
12,GACCAAUCUGCCCUCAGAGCUCGAGAACAUCUUCGGAUGCAGAGGAGGCAGGCUUCGGUGGCGCGAUAGCGCCAACGUCCUCAAACUCCAAUGCAUCCCACCACAUGAUGAUGCUUGAAGAGCCUUGGUUUUUUG [C85A C115U],-2.7
13,GACCAAUCUGCCCUCAGAGCUCGAGAACAUCUUCGGAUGCAGAGGAGGCAGGCUUCGGUGGCGCGAUAGCGCCAACGUCCUCAAACUCCAAUGCCUCCCACCACAUGAUGAUGCCUGAAGAGCCUUGGUUUUUUG [C85A A95C],-2.61
14,GACCAAUCUGCCCUCAGAGCUCGAGAACAUCUUCGGAUGCAGAGGAGGCAGGCUUCGGUGGCGCGAUAGCGCCAACGUCCUCAUCCUCCAAUGCAUCCCACCACAUGAUUAUGCCUGAAGAGCCUUGGUUUUUUG [A84U G110U],-1.34
15,GACCAAUCUGCCCUCAGAGCUCGAGAACAUCUUCGGAUGCAGAGGAGGCAGGCUUCGGUGGCGCGAUAGCGCCAACGUCCUCAAGCUCCAAUGCAUCCUACCACAUGAUGAUGCCUGAAGAGCCUUGGUUUUUUG [C85G C99U],-4.35
16,GACCAAUCUGCCCUCAGAGCUCGAGAACAUCUUCGGAUGCAGAGGAGGCAGGCUUCGGUGGCGCGAUAGCGCCAACGUCCUCAUCCUCCUAUGCAUCCCACCACAUGAUGAUGCCUGAAGAGCCUUGGUUUUUUG [A84U A90U],-1.49
17,GACCAAUCUGCCCUCAGAGCUCGAGAACAUCUUCGGAUGCAGAGGAGGCAGGCUUCGGUGGCGCGAUAGCGCCAACGUCCUCAAACUCCAAUGCAUCCCACCACAUGAUGAUGCCUAAAGAGCCUUGGUUUUUUG [C85A G117A],-2.97
18,GACCAAUCUGCCCUCAGAGCUCGAGAACAUCUUCGGAUGCAGAGGAGGCAGGCUUCGGUGGCGCGAUAGCGCCAACGUCCUCAAACUCCAAUGCAUCCCACCACAUGAUGAAGCUUGAAGAGCCUUGGUCUUUUG [C85A U112A C115U U130C],-2.28
19,GACCAAUCUGCCCUCAGAGCUCGAGAACAUCUUCGGAUGCAGAGGAGGCAGGCUUCGGUGGCGCGAUAGCGCCAACGUCCUCAAUCUCCAAUGCAUCUCACCACAUGAUGAUGCCUGAAGAGCCUUGGUUUUUUG [C85U C98U],-1.57
20,GACCAAUCUGCCCUCAGAGCUCGAGAACAUCUUCGGAUGCAGAGGAGGCAGGCUUCGGUGGCGCGAUAGCGCCAACGUCCUCAAGCUCCAAUGCAUCCCACCACAUGAUGAUGCCUGUAGAGCCUGGGUUUUUUG [C85G A118U U126G],-3.39
21,GACCAAUCUGCCCUCAGAGCUCGAGAACAUCUUCGGAUGCAGAGGAGGCAGGCUUCGGUGGCGCGAUAGCGCCAACGUCCUCAAGCUCCAAUGCAUCCCACCACAUGAUGAUGUCUGAAGAGCCUUGGUUUUUUG [C85G C114U],-3.59

row,Variant,polymerase ribozyme fitness (log ratio)
1,GACCAAUCUGCCCUCAGAGCUCGAGAACAUCUUCGGAUGCAGAGGAGGCAGGCUUCGGUGGCGCGAUAGCGCCAACGUCCUCAAUCUCCAAUGCAUCCCACCACAUGAUCAUGCUUGAAGGGCCUUGGUUUUUUG [C85U G110C C115U A121G],-6.18
2,GACCAAUCUGCCCUCAGAGCUCGAGAACAUCUUCGGAUGCAGAGGAGGCAGGCUUCGGUGGCGCGAUAGCGCCAACGUCCUCAAUCUCCAAUGCAUCCCUCCACAUGAUGAUGCCUGAAGAGCCUUGGUUUUUUG [C85U A100U],-1.79
3,GACCAAUCUGCCCUCAGAGCUCGAGAACAUCUUCGGAUGCAGAGGAGGCAGGCUUCGGUGGCGCGAUAGCGCCAACGUCCUCAAUCUCCAAUGCAUCCCCCCACAUGAUGAUGCCUGAAGAGCCUUGGUUUUUUG [C85U A100C],-1.76
4,GACCAAUCUGCCCUCAGAGCUCGAGAACAUCUUCGGAUGCAGAGGAGGCAGGCUUCGGUGGCGCGAUAGCGCCAACGUCCUCAAGCUCCAAUGCAUCCCACCACAUGAUCAUGCCUGAAGAGCCUUGGUUUUUUG [C85G G110C],-4.96
5,GACCAAUCUGCCCUCAGAGCUCGAGAACAUCUUCGGAUGCAGAGGAGGCAGGCUUCGGUGGCGCGAUAGCGCCAACGUCCUCAAUCUCCAAUGCAUCCCACCACAUGAUGAUUCCUGAAGAGCCUUGGUUUUUUG [C85U G113U],-3.63
6,GACCAAUCUGCCCUCAGAGCUCGAGAACAUCUUCGGAUGCAGAGGAGGCAGGCUUCGGUGGCGCGAUAGCGCCAACGUCCUCAUCCUCCAAUGCAUCCCACCACAUGAUCAUGCCUGAAGAGCCUUGGUCUUUUG [A84U G110C U130C],-4.16
7,GACCAAUCUGCCCUCAGAGCUCGAGAACAUCUUCGGAUGCAGAGGAGGCAGGCUUCGGUGGCGCGAUAGCGCCAACGUCCUCAAUCUCCAAUGCAUCCCACCACAUGAUGAUGCCUGAAGAGCGUUGGUUUUUUG [C85U C124G],0.923
8,GACCAAUCUGCCCUCAGAGCUCGAGAACAUCUUCGGAUGCAGAGGAGGCAGGCUUCGGUGGCGCGAUAGCGCCAACGUCCUCAUCCUCCAAUGCAUCCCACCACAUGAUGACGCCUGAAGAGCCUUGGUUUUUUG [A84U U112C],1.2
9,GACCAAUCUGCCCUCAGAGCUCGAGAACAUCUUCGGAUGCAGAGGAGGCAGGCUUCGGUGGCGCGAUAGCGCCAACGUCCUCAAUCUCCAAUGCAUCCCACCACAUGAGGAUGCCUGAAGAGCCUUGGUUUUUUG [C85U U109G],-5.2
10,GACCAAUCUGCCCUCAGAGCUCGAGAACAUCUUCGGAUGCAGAGGAGGCAGGCUUCGGUGGCGCGAUAGCGCCAACGUCCUCAAUCUCCAAUGCAUCCCACCACAUGAUGAUGCCUGAACAGCCUUGGUUUUUUG [C85U G120C],0.93
11,GACCAAUCUGCCCUCAGAGCUCGAGAACAUCUUCGGAUGCAGAGGAGGCAGGCUUCGGUGGCGCGAUAGCGCCAACGUCCUCAAUCUCCAAUGCAUCCCACCACAUGAUGAUGCCUGAAUAGCCUUGGUUUUUUG [C85U G120U],0.655
12,GACCAAUCUGCCCUCAGAGCUCGAGAACAUCUUCGGAUGCAGAGGAGGCAGGCUUCGGUGGCGCGAUAGCGCCAACGUCCUCAAUCUCCAAUGCAUCCCACCACAUGAUGAUGCCUGGAGAGCCUUGGUUUUUUG [C85U A118G],-0.773
13,GACCAAUCUGCCCUCAGAGCUCGAGAACAUCUUCGGAUGCAGAGGAGGCAGGCUUCGGUGGCGCGAUAGCGCCAACGUCCUCAAGCUCCAAUGCAUCCCACCACAUGAUGAUGCCUGAAGAGCCUUGGUUAUUUG [C85G U131A],-1.92
14,GACCAAUCUGCCCUCAGAGCUCGAGAACAUCUUCGGAUGCAGAGGAGGCAGGCUUCGGUGGCGCGAUAGCGCCAACGUCCUCAAGCUUCAAUGCAUCCCACCACAUGAUGAUGCCUGAAGAGCCUUGGUUUUUUG [C85G C88U],-0.339
15,GACCAAUCUGCCCUCAGAGCUCGAGAACAUCUUCGGAUGCAGAGGAGGCAGGCUUCGGUGGCGCGAUAGCGCCAACGUCCUCAAACUCCAAUGCAUCCCACCACAUGAUGAUGCCUGAAGAACCUUGGUUUUUUG [C85A G122A],-1.14
16,GACCAAUCUGCCCUCAGAGCUCGAGAACAUCUUCGGAUGCAGAGGAGGCAGGCUUCGGUGGCGCGAUAGCGCCAACGUCCUCAAGCUCCAAUGCAUCCCACCACAGGAUGAUGCCUGAAGAGCCUUGGUUUUUUG [C85G U106G],-2.45
17,GACCAAUCUGCCCUCAGAGCUCGAGAACAUCUUCGGAUGCAGAGGAGGCAGGCUUCGGUGGCGCGAUAGCGCCAACGUCCUCAAUCUCCAAUGUAUCCCACCACAUGAUGAUGCCUGAAGAGCCUUGGUUUUUUG [C85U C94U],-1.2
18,GACCAAUCUGCCCUCAGAGCUCGAGAACAUCUUCGGAUGCAGAGGAGGCAGGCUUCGGUGGCGCGAUAGCGCCAACGUCCUCAAGCUCCAAUGUAUUCCACCACAUGAUGAUGCCUGAACAGCCUUGGUUUUUUG [C85G C94U C97U G120C],-0.74
19,GACCAAUCUGCCCUCAGAGCUCGAGAACAUCUUCGGAUGCAGAGGAGGCAGGCUUCGGUGGCGCGAUAGCGCCAACGUCCUCAAUCUCCAAUGCAUCCCACCACAUGAUGAAGCCUGAAGAGCCUUGGUUUUUUG [C85U U112A],0.416
20,GACCAAUCUGCCCUCAGAGCUCGAGAACAUCUUCGGAUGCAGAGGAGGCAGGCUUCGGUGGCGCGAUAGCGCCAACGUCCUCAUCAUCCAAUGCAUCCCACCACAUGAUGAUGCCUGAAGAGCCGUGGUUUUUUG [A84U C86A U125G],-1.97
21,GACCAAUCUGCCCUCAGAGCUCGAGAACAUCUUCGGAUGCAGAGGAGGCAGGCUUCGGUGGCGCGAUAGCGCCAACGUCCUCAAGCUCCAAUGCAUCCCACCACAUGAUGAUGCCUGAAGAGCCUUGAUUUUUUG [C85G G128A],-2.55
